Where no end group is shown, it is not given here.
Tests used:
[1] = biological target: T1, Tumor Necrosis Factor-alpha (TNF-α); experiment: SPR kinetic fits of sensorgrams
T1 construct: also called TNF-a

[2] = biological target: T1, Tumor Necrosis Factor-alpha (TNF-α); experiment: SPR equilibrium, Biacore A100, TNF-α captured on chip
Protocol: Point-mutant libraries were prepared in 96-well stock plates From the stock plate, peptides were diluted to 50 μM concentration in Biacore HBS-EP buffer (GE Healthcare, Piscataway, N.J.) containing 1 mg/ml carboxymethyl-dextran (Sigma-Aldrich, St. Louis, Mo.) to reduce non-specific binding to the CM-5 SPR chip surface. […] Spot 3 contained only immobilized neutravidin and served as a reference spot.
Purified point-mutant affinities were measured on the Biacore A100 using SPR equilibrium binding response across a series of peptide concentrations on an SPR chip with TNF-α captured as described above.

[3] = biological target: T2, transferrin; experiment: SPR
T2 construct: Alexa 555 labelled on arrays, amine-coupled to the chip in SPR, on beads in mRNA display; also called TRF; transferring
T2 sequence (P02787 20-698): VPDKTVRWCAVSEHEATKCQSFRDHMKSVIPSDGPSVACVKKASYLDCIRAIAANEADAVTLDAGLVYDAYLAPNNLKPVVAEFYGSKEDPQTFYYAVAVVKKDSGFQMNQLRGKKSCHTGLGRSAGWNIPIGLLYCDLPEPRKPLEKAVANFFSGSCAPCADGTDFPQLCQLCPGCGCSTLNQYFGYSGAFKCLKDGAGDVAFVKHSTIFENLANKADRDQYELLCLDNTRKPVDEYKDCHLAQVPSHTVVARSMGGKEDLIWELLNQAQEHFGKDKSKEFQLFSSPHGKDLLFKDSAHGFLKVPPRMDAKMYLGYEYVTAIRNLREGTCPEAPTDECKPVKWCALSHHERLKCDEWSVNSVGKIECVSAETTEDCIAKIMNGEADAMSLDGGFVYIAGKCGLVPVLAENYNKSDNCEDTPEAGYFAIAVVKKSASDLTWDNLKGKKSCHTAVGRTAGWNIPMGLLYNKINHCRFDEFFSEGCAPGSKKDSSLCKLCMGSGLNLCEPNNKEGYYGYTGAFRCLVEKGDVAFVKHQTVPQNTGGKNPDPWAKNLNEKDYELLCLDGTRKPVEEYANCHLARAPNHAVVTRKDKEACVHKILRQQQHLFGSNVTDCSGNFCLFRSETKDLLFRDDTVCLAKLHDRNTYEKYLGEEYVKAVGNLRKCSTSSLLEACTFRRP

[4] = biological target: AKT1 (Homo sapiens (Human), UniProt P31749 1-480); experiment: SPR
Sequence of AKT1 (P31749 whole entry): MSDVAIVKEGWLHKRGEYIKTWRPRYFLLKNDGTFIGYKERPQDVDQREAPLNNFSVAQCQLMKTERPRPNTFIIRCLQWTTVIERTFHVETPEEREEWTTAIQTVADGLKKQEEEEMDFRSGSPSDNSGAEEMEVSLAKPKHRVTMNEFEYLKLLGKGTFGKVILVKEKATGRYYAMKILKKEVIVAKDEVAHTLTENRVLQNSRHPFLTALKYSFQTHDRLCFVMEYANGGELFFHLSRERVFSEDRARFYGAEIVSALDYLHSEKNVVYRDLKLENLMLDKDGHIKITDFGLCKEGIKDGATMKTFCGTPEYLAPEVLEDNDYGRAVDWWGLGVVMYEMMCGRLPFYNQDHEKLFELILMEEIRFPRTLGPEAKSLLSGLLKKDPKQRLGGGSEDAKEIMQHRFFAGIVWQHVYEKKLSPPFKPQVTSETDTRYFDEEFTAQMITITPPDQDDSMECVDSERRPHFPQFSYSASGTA

[5] = biological target: T3, ANXA1 (human, UniProt P04083); experiment: Invitrogen Protoarray Human Protein Microarray v. 4.0; biotinylated synbody detected with fluorescently labelled streptavidin; fluorescence intensity above background
T3 construct: GST fusion, feature of the Invitrogen Protoarray Human Protein Microarray v; 4.0
T3 sequence (array feature, looked up): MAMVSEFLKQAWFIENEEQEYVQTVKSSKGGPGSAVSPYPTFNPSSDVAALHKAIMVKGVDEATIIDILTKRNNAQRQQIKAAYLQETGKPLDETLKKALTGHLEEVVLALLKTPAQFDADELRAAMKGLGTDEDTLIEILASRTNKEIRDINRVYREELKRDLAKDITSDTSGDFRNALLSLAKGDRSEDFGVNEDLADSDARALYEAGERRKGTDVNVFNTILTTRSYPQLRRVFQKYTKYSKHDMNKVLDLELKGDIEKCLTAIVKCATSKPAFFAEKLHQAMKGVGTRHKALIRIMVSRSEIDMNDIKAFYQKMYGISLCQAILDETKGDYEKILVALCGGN
Protocol: (§1) Application of the synbodies to the microarray was performed in accordance with manufacturer instructions: (see ProtoArray Human Protein Microarray, Invitrogen, Catalog no. PAH052401, Version B, 15 Dec. 2006, 25-0970, Users Manual.) After blocking the array with 1% BSA/PBS/0.1% Tween for 1 hour at 4C with gentle shaking, 120 μl of probing buffer (1×PBS, 5 mM mgCl2, 0.5 mM DTT, 0.05% Triton X-100, 5% glycerol, 1% BSA) with synbody was applied to the array. The prescribed cover slip was placed over the array and adjusted to remove air bubbles. The array was incubated in a 50 ml conical tube, printed side up, for 1.5 hours at 4C without shaking. The array was then removed from the conical tube inserted diagonally into the array chamber, kept on ice. 8 ml probing buffer was added to the chamber wall. The cover slip was removed and the array was incubated in probing buffer for 1 minute on ice. The probing buffer was decanted and drained. Two further washings were performed adding 8 ml probing buffer, incubating on ice for 1 minute, and decanting and draining. 5 nM fluorescently labeled streptavidin diluted in 6 ml probing buffer was incubated on the array for 30 minutes on ice in the dark, after which the solution was decanted and drained. Three wash steps were performed, each by adding 8 ml probing buffer, incubating for 1 minute on ice, decanting, and draining. The array was removed from the chamber, centrifuged at 800×g for 5 minutes at room temperature. The array was dried in the dark for 60 minutes at room temperature, after which it was scanned using a fluorescent microarray scanner and data was taken and analyzed.

[6] = biological target: T4, ROCK2 (human, UniProt O75116); experiment: as above
T4 construct: GST fusion, feature of the Invitrogen Protoarray Human Protein Microarray v; 4.0
T4 sequence (O75116 1-552 limits assumed): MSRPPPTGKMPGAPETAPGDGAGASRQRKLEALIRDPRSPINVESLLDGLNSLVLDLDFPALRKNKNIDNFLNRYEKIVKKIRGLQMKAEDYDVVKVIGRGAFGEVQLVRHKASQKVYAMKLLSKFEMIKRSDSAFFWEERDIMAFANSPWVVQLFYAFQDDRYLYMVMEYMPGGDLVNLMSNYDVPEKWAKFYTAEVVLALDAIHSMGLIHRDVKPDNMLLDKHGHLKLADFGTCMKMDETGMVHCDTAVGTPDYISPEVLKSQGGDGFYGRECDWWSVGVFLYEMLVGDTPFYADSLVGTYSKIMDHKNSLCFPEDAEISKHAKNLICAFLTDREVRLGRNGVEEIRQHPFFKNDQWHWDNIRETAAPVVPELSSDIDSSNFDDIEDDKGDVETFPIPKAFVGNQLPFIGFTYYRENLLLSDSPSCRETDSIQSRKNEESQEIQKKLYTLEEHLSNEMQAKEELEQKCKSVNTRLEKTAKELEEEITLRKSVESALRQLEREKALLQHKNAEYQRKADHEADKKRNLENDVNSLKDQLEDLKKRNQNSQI
Protocol: as §1

[7] = biological target: T5, PTK2 (human, UniProt Q05397); experiment: as above
T5 construct: GST fusion, feature of the Invitrogen Protoarray Human Protein Microarray v; 4.0
T5 sequence (Q05397 whole entry, the tested form may be a part): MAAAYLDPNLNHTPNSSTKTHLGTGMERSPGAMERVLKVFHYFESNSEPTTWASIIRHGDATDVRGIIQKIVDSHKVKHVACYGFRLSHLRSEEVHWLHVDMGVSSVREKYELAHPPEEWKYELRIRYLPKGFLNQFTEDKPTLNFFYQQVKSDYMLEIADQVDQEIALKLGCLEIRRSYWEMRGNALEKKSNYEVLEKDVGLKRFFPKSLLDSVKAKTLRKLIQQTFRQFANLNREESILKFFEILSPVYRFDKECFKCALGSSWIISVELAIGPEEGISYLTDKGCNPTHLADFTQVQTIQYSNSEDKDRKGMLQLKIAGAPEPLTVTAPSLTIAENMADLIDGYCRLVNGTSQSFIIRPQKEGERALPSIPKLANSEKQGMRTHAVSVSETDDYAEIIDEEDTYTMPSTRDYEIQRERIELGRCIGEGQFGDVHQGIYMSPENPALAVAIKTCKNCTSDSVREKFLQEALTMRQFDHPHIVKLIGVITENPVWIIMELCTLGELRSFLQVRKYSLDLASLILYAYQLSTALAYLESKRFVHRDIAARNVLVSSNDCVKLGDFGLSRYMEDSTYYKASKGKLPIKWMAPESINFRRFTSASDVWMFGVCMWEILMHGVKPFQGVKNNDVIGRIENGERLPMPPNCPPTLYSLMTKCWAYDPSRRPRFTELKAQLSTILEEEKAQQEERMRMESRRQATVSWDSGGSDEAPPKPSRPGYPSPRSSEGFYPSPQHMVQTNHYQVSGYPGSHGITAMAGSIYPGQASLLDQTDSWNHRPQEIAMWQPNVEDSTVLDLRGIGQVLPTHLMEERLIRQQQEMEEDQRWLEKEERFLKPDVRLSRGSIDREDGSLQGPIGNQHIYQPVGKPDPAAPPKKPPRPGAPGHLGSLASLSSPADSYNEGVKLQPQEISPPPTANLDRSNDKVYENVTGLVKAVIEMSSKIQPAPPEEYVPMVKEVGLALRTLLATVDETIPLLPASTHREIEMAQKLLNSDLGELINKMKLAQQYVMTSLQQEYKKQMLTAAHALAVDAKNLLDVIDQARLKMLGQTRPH
Protocol: as §1

[8] = biological target: T6, LACRT (human, UniProt Q9GZZ8); experiment: as above
T6 construct: GST fusion, feature of the Invitrogen Protoarray Human Protein Microarray v; 4.0
T6 sequence (array feature, looked up): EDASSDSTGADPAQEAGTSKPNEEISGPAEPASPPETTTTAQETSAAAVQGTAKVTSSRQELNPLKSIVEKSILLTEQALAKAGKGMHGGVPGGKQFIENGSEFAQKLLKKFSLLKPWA
Protocol: as §1

[9] = biological target: T7, CHAF1B (human, UniProt Q13112); experiment: as above
T7 construct: GST fusion, feature of the Invitrogen Protoarray Human Protein Microarray v; 4.0
T7 sequence (Q13112 whole entry, the tested form may be a part): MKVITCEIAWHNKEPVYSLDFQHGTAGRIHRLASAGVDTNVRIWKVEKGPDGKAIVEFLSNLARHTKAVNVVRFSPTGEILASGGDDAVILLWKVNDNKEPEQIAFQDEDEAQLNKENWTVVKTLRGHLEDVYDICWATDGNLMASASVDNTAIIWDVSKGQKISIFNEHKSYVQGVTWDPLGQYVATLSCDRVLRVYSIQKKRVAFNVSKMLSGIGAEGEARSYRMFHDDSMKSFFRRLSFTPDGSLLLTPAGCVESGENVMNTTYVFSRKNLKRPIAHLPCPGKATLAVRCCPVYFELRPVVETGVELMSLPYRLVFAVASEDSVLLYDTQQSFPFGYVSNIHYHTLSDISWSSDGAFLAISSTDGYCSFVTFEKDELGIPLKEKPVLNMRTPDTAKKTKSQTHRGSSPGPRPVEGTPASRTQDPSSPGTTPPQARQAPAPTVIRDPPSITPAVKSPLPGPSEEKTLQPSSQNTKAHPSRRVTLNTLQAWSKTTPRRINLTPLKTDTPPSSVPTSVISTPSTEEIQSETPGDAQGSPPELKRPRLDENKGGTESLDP
Protocol: as §1

[10] = biological target: T8, ACTC (human, UniProt P68032); experiment: as above
T8 construct: GST fusion, feature of the Invitrogen Protoarray Human Protein Microarray v; 4.0
Protocol: as §1

[11] = biological target: T9, pooled human transferrin (Sigma), biotinylated (human, UniProt P02787 20-698, biotinylated at amines with NHS-LC-LC-Biotin); experiment: SPR Biacore A-100, purified peptide at several concentrations
T9 construct: Captured on Neutravidin on a CM5 chip (Biacore A-100)
T9 sequence (P02787 20-698 limits assumed): as the sequence (P02787 20-698) above
Text: A Biacore A-100 Surface Plasmon Resonance (SPR) system was used to measure the binding response of each peptide to several different target proteins immobilized on a gold surface. The A-100 has four different flow cells and within each flow cell are five addressable spots. Therefore four different proteins and a negative control reference can be used per flow cell. Depending on the purpose of the assay, up to 16 different target proteins can be immobilized on a single SPR chip. The instrument is equipped to evaluate up to 10 384-well plates unattended and can process approximately four 384-well plates per day. Sensorgrams are collected from each immobilized protein, so a binding profile for each analyte versus each of the protein targets is generated for each injection. Target proteins were immobilized using a biotin capture approach in which a CM5 chip was activated using standard amine coupling chemistry and Neutravidin was covalently coupled to the chip. Each biotinylated protein was injected over a single spot and the amount of protein captured was measured.

T1 sequence (P01375 77-233): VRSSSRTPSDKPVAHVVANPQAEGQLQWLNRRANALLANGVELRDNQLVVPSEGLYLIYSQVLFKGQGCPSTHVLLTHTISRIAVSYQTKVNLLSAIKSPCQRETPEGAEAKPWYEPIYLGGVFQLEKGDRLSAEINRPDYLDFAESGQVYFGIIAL

FERDPLMMPWSFLQSRQGSC [TNF1 lead peptide] showed a koff [1] of 1.6 s⁻¹ and a Kd [2] of 160 µM.

B1: SYN23-26 (designed binder)
peptide 1: FRGWAHIFFGPHVIYRGGSG
peptide 2: AHKVVPQRQIRHAYNRYGSG
modifications: also: linker at chain A 20 at chain B 20 to a chain's C-terminus via Lys-Cys(biotin)
notes: Two 20-mers on the alpha and epsilon amines of a lysine, about 1 nm apart; thiol of the cysteine biotinylated for array detection; also called biotinylated anti-TRF synbody
B1 was tested, and the Kd [3] was ~0.141 µM, the Kd [4] was ~0.001 µM and the binding result [5] was “binds”. B1: no binding [6]; no binding [7]; no binding [8]. B1: binds [9]; binds [10].

B2: TRF101 (peptide)
peptide: ARDLLIQKNSGQDVDHRGSC
notes: Screened unpurified, then resynthesised and HPLC purified for the KD
Binder B2 has a Kd [11] of 78.9 µM.
